Experiments:
[1] = molecular target: T1, human integrin α6β1 on CHO-S cells (CHO-S-human ITGA6B1-#24) (human, UniProt P05556 21-798; P23229 24-1130); assay: flow cytometry on CHO-S-human ITGA6B1-#24 cells
T1 construct: whole, on cells; also called human ITGB1

[2] = molecular target: T2, mouse integrin α6β4 on cells (CHO-S-murine ITGA6B4-#12; 4T1) (mouse, UniProt A2A863 29-1818; Q61739 24-1091); assay: flow cytometry on 4T1 and CHO-S-murine ITGA6B4-#12 cells
T2 construct: whole, on cells; also called mouse ITGB4; CHO-S-mouse ITGB4
T2 sequence (A2A863 29-1818, chain 1 of 2): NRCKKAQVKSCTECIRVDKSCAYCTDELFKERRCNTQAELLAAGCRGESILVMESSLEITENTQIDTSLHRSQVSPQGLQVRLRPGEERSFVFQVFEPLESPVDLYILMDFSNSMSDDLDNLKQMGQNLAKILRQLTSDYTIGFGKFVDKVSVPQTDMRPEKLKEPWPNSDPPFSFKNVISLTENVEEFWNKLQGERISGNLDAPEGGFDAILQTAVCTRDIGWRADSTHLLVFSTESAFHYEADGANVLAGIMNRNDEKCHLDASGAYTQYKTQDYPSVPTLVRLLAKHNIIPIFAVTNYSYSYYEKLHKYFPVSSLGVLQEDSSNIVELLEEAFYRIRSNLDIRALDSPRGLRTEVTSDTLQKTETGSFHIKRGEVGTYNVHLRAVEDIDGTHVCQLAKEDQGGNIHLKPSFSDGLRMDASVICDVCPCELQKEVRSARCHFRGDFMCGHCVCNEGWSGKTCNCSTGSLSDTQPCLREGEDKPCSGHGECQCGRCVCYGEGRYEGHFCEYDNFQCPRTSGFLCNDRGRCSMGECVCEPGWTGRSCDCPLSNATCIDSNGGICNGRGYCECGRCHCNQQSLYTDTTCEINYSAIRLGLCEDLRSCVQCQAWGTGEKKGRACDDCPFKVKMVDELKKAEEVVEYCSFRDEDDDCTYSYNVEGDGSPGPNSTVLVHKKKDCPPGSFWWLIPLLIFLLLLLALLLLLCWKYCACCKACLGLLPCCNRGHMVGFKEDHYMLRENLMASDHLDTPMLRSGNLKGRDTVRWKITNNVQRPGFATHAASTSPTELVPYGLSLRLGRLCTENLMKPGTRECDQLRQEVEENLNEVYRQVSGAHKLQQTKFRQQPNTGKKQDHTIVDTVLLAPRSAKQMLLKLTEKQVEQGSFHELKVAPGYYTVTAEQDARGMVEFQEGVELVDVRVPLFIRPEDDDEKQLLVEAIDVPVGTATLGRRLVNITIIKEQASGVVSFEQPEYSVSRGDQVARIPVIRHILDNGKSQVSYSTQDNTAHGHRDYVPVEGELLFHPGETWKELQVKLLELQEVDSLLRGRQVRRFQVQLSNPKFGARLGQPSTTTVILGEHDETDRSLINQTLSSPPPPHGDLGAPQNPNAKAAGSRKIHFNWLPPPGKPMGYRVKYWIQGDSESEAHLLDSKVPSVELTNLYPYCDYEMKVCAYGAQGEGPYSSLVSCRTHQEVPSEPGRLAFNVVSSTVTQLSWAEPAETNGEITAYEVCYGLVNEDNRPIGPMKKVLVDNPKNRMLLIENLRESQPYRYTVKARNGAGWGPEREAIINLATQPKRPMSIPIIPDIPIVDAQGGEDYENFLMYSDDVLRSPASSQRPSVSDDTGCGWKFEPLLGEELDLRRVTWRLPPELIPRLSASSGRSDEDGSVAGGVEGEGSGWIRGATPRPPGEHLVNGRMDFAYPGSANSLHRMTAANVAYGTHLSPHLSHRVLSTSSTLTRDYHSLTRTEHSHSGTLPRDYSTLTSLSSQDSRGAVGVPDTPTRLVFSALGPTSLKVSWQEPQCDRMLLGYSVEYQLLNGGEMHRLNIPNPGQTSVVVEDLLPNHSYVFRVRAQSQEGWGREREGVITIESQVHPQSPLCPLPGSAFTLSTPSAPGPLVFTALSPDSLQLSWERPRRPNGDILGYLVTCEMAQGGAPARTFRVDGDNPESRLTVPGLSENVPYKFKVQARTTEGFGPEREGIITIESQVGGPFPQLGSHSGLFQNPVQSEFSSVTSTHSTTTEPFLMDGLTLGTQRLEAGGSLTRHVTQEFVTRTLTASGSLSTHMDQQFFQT
T2 sequence (Q61739 24-1091, chain 2 of 2): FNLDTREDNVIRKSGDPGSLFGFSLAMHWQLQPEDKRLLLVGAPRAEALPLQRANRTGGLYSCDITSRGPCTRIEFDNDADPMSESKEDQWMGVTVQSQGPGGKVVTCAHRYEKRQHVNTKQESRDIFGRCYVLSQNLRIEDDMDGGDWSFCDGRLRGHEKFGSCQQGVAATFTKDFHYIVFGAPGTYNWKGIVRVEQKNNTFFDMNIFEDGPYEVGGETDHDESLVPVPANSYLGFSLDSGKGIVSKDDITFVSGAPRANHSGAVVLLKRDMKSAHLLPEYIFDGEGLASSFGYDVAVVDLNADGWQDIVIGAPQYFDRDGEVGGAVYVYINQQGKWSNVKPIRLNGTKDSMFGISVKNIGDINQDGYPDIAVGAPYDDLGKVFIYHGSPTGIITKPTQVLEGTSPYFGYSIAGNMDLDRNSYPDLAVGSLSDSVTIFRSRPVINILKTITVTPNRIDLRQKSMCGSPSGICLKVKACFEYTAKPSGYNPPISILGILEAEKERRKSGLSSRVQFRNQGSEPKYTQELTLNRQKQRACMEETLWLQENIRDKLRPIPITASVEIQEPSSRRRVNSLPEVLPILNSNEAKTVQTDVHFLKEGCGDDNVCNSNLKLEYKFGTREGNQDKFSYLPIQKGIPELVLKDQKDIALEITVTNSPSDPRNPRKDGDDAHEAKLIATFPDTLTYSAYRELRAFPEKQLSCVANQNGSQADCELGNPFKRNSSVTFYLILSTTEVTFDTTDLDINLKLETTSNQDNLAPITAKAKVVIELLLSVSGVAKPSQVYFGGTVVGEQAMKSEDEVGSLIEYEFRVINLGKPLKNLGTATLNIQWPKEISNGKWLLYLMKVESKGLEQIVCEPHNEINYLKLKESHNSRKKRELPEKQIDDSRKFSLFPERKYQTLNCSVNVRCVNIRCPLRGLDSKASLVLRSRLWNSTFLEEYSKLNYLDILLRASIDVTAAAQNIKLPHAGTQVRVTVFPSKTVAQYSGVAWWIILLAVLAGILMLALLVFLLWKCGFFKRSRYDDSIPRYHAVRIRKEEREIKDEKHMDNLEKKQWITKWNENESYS

T1 sequence (P05556 21-798, chain 1 of 2): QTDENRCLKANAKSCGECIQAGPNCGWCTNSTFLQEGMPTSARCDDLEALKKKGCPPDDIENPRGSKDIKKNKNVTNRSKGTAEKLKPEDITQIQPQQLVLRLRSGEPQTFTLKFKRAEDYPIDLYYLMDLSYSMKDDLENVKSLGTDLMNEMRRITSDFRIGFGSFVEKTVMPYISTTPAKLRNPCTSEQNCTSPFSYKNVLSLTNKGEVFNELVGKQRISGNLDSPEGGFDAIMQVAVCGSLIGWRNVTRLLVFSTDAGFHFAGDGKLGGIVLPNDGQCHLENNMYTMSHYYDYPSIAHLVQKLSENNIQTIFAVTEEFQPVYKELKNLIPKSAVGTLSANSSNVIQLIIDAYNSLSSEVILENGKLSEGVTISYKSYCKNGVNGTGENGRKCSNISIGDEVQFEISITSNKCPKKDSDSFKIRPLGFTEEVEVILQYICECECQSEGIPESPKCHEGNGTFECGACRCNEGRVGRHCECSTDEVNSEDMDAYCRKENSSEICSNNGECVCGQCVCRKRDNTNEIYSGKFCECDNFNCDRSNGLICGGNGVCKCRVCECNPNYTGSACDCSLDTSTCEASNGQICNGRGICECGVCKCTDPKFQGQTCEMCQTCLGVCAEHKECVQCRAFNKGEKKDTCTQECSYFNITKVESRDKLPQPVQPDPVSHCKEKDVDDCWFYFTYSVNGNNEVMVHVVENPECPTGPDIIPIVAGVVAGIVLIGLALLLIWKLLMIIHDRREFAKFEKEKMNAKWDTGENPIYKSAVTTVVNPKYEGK
T1 sequence (P23229 24-1130, chain 2 of 2): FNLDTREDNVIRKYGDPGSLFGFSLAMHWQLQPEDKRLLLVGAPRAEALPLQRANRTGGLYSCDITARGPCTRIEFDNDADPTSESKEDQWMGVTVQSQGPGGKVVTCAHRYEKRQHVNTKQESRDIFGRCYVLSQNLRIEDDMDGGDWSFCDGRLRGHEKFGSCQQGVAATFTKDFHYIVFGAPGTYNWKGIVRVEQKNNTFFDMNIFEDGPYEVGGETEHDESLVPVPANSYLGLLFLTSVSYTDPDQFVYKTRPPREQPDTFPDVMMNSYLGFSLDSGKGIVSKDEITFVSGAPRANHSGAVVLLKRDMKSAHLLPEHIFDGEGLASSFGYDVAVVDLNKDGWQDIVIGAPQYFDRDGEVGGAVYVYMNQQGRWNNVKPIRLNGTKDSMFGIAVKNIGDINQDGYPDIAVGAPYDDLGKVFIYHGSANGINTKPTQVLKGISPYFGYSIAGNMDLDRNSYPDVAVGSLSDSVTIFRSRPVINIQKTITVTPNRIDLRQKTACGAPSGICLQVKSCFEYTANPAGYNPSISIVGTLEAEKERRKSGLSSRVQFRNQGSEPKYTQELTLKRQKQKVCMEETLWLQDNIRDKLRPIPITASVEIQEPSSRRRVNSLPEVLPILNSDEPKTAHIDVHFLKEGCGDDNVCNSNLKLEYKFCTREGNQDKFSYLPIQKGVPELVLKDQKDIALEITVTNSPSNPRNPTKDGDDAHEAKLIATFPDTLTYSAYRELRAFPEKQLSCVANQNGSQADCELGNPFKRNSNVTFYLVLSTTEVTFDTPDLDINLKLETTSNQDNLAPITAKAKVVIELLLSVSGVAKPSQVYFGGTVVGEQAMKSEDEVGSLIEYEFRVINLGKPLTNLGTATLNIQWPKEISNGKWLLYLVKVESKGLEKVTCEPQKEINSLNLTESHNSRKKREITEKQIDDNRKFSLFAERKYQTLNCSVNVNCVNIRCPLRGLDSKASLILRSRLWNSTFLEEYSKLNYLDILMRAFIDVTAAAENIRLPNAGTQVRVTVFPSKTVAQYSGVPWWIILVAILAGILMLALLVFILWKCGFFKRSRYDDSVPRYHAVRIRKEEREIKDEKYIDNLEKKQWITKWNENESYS

B1: anti-ITGB4 antibody 008 (parental clone) (antibody, V domains shown)
VH: QVQLKQSGPSLVQPSQSLSITCTVSGFSLTSYGVHWFRQSPGKGLEWLGVIWRGGNTDYNAAFMSRLSITKDNSKSQVFFKMNSLQPDDTAIYYCVKNYRFGGSAYWGQGTLVTVSA
VL: DIQMTQTTSSLSASLGDRVTISCRASQDISNHLNWYQQKPDGTVKLLIYYTSTLHSGVPSRFSGSGSGTDYSLTISNLEPEDIATYYCQQDLNLPWTFGGGTKLEIK
notes: In the assays it was captured on anti-human IgG Fc sensors and detected with anti-human IgG, so the tested form carries a human Fc; also called 008 clone
B1: no binding [1]; no binding [2].

— patent EP4688000A1 (dated 2026)
